Legend:
[1] = target: IRGB10 D185R mutant (head-to-head dimer disruption mutant) (mouse) (UniProt Q0GUM3); test: SEC-MALS; tentative dimer peak of the head-to-head disruption mutants (Fig. 3e, g)
[2] = target: Immunity-related GTPase B10 (IRGB10), mouse, full length, wild type (mouse) (UniProt Q0GUM3); test: SEC-MALS; third peak of the first SEC, Superdex 200 10/300, 20 mM Tris-HCl pH 8.0, 150 mM NaCl, room temperature, no GTP added

stoichiometry N [1]	stoichiometry N [2]	Substance
2	–	IRGB10 D185R mutant (head-to-head dimer disruption mutant) (from UniProt Q0GUM3 1-417) (natural protein)
–	2	Immunity-related GTPase B10 (IRGB10), mouse, full length, wild type (from UniProt Q0GUM3 1-417) (natural protein)

Reference: paper PMC7815755
